From patent US20190367620A1 (Merck KGaA, published 2019)

Tests used:
[1] = molecular target: T1, human FGFR1b-IIIb extracellular domain with a HIS tag (human); test: ELISA, antibody titrated on huFGFR1b-IIIb, O.D. 450 nm [panel huFGFR1b-IIIb]
T1 construct: also called huFGFR1b-IIIb; hFGFR1b-IIIb
T1 chain: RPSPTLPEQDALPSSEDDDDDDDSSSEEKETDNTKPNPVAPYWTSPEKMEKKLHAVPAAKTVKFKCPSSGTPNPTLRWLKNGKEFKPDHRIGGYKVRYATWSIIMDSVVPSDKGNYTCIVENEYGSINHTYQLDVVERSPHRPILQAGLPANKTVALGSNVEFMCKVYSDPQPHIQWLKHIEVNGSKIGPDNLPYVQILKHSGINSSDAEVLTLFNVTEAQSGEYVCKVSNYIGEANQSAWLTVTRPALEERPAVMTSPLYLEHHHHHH

Human FGFR1 D2-His6 = molecular target: T2, Human FGFR1 D2-His6 (human, UniProt P11362 22-254); test: ELISA, antibody titrated on FGFR1 Ig-D2, O.D. 450 nm [panel FGFR1 Ig-D2]
T2 construct: also called D2 domain; F3FR1c-D2
T2 sequence: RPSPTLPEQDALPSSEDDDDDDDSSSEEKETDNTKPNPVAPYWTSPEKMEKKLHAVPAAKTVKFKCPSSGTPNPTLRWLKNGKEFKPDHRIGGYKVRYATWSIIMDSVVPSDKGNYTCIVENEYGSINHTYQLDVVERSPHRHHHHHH

FGFR1 on NCI-H520 cells = FGFR1 on NCI-H520 cells (human, UniProt P11362 22-822); test: cell-based or functional assay
Sequence of FGFR1 on NCI-H520 cells (P11362 22-822): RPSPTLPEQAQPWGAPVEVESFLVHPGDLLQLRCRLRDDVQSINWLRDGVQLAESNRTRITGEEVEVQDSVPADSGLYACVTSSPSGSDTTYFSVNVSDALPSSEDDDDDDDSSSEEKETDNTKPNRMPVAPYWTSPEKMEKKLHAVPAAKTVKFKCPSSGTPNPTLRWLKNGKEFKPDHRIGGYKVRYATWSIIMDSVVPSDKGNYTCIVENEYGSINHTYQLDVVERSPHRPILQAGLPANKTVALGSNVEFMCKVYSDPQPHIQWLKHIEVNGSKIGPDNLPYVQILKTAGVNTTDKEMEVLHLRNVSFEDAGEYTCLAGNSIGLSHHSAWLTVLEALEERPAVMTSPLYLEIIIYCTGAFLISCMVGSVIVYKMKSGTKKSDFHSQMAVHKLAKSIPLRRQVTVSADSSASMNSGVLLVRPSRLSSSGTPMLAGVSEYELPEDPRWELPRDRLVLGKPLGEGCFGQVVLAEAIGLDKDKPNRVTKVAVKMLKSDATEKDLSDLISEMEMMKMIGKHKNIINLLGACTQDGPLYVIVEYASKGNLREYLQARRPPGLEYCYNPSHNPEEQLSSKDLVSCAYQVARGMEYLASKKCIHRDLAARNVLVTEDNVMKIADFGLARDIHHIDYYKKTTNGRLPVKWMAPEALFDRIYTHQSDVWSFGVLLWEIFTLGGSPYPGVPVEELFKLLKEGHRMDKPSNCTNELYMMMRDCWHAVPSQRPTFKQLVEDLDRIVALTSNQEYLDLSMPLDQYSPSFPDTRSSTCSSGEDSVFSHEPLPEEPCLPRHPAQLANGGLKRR

[2] = molecular target: T3, FGFR1 D2 point mutant R97A (human, UniProt P11362 22-254); test: SPR as in Example 1.8
T3 chain: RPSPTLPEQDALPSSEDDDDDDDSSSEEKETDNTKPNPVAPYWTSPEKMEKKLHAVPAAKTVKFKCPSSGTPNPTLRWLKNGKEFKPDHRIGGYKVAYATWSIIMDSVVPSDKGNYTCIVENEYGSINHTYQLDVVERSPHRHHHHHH
Description: (§1) Binding affinities of anti-FGFR1 antibodies to FGFR1 were measured by Surface Plasmon Resonance (SPR) using a GE Healthcare BIAcore 4000 instrument as follows. Goat anti-human Fc antibody (Jackson ImmunoResearch Laboratories #109-005-098) was first immobilized on BIAcore carboxymethylated dextran CM5 chip using direct coupling to free amino groups following the procedure described by the manufacturer. Antibodies were then captured on the CM5 biosensor chip to achieve approximately 200 response units (RU). Binding measurements were performed using the running HBS-EP+ buffer. A 2-fold dilution series of His-tagged FGFR1 proteins were injected at a flow rate of 30 μl/min at 25° C. Association rates (kₒₙ, per mol/s) and dissociation rates (koff, per s) were calculated using a simple 1:1 Langmuir binding model (Biacore 4000 Evaluation Software). The equilibrium dissociation constant (KD, mol) was calculated as the ratio of koff/kₒₙ.
(§2) To obtain a finer, residue-level mapping of the epitope and to complement the HD exchange data, molecular modelling and manual inspection of the crystal structure of FGFR1 [(Beenken et al. 2012); PDB record 3OJV] was used to select solvent exposed residues within and around the epitope identified by HD exchange. The selected residues were mutated either to alanine (large to small) or to glycine if the selected residue was alanine. In total 35 point mutants were designed, expressed and purified in HEK cells, and tested for binding to mAb #A08 using surface plasmon resonance as described in Example 1.8. The affinity of the antibody for wild-type and each mutant was determined and used to calculate the contribution of each epitope residue to the binding energy.

[3] = molecular target: T4, FGFR1 D2 point mutant K86A (human, UniProt P11362 22-254); test: SPR as in Example 1.8
T4 chain: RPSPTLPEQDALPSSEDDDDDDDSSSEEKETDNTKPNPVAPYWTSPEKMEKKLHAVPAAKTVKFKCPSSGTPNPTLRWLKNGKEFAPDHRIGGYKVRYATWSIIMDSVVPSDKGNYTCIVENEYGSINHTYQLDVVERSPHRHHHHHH
Description: as §1, §2

[4] = molecular target: T5, human FGFR1b-IIIc extracellular domain with a HIS tag (human, UniProt P11362 22-376); test: SPR as in Example 1.8
T5 construct: also called huFGFR1b-IIIc; hFGFR1b-IIIc
T5 sequence: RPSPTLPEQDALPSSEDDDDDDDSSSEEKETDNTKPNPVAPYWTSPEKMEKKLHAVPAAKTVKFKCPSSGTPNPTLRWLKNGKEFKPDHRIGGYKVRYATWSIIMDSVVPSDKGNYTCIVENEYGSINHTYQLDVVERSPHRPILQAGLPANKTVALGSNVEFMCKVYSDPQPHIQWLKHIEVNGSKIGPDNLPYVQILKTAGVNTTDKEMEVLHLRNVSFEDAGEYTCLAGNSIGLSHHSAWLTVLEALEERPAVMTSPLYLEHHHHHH
Description: as §1, §2

[5] = molecular target: T6, FGFR1 D2 point mutant A58G (human, UniProt P11362 22-254); test: SPR as in Example 1.8
T6 chain: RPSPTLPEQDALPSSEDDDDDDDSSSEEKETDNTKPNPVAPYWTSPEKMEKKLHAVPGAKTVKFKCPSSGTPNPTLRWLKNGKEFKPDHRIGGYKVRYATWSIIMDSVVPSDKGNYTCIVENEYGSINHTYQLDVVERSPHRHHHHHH
Description: as §1, §2

[6] = molecular target: T7, FGFR1 D2 point mutant Y98A (human, UniProt P11362 22-254); test: SPR as in Example 1.8
T7 chain: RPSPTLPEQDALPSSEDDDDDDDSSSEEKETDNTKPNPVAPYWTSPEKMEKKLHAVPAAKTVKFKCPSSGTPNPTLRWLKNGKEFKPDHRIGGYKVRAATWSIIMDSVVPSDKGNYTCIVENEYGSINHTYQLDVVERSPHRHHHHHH
Description: as §1, §2

Human FGFR1-IIIc D3-His6 = molecular target: T8, Human FGFR1-IIIc D3-His6 (human, UniProt P11362 254-376); test: SPR (NBD indicates no binding detected)
T8 construct: also called D3 domain; F3FR1c-D3
T8 sequence: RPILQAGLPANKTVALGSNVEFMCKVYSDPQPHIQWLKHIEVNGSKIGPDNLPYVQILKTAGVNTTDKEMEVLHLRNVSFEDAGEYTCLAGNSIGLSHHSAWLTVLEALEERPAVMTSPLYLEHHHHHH

rheFGFR1a-IIIc = molecular target: T9, rheFGFR1a-IIIc (rhesus monkey); test: SPR (Biacore 4000), antibody captured, His-tagged FGFR1 injected; no unit in the table, nM inferred from paragraph 90
T9 construct: Bought, His6 tag; also called rhesus monkey FGFR1a-IIIc His6-tagged
Description: as §1

B1: mAb #A08 (antibody, V domains shown)
VH: EVQLQESGPGLVKPSGTLSLTCAVSGGSISSNNWWSWVRQPPGKGLEWIGEIYHSGSTSYNPSLKSRVTISVDKSKNQFSLKLNSVTAADTAVYYCARGTDWFDPWGQGTLVTVSS
VL: QAVLTQPPSVSVAPGQTARITCGGNNIGSESVHWYQQKPGQAPVLVVYDDSDRPSGIPERFSGSNSGNTATLTISRVEAGDEADYYCQVWDSTSDHRVFGGGTKLTVL
notes: Only variable domains are tied to the name mAb #A08 (hit); also called #A08 hit; mAb #08
EC50 (read off the curve) [1]: ~0.03 nM
EC50 (read off the curve) (Human FGFR1 D2-His6): ~0.04 nM
IC50, inhibition of P-FGFR1 in NCI-H520 cells, FGF1 stimulated (FGFR1 on NCI-H520 cells): 4 nM
IC50, inhibition of P-FGFR1 in NCI-H520 cells, FGF2 stimulated (FGFR1 on NCI-H520 cells): 0.2 nM
IC50, inhibition of P-FGFR1 in NCI-H520 cells, non-stimulated (hashtag: estimated IC50, poor fit) (FGFR1 on NCI-H520 cells): ~1000 nM
Kd [2]: 4.25 nM
Kd [3]: 0.18 nM
Kd [4]: 0.48 nM
Kd [5]: 2.2 nM
Kd [6]: 0.18 nM
binding result (Human FGFR1-IIIc D3-His6): no binding
Kd (rheFGFR1a-IIIc): 0.46 nM
